Consider nine molecules from patent US20240182536A1 (MURAL ONCOLOGY, published 2024).

Assay [1] has as its target T1, IL-18 receptors on HEK-Blue IL-18 reporter cells (UniProt Q13478 19-541; O95256 20-599, limits assumed).
T1 sequence (looked up) 1: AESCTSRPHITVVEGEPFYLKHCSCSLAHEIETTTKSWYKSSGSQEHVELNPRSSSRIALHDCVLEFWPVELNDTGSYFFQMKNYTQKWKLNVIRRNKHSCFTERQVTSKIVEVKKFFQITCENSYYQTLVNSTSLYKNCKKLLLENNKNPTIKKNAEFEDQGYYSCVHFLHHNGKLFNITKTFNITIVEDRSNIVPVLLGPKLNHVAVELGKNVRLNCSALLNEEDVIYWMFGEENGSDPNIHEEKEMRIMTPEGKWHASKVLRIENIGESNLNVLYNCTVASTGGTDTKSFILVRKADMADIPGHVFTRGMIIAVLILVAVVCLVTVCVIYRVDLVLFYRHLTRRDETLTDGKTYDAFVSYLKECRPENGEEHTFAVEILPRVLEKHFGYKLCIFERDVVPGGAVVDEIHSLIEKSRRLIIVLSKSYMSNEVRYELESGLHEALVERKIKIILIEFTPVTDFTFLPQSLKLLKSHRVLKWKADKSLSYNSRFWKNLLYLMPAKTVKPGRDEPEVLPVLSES
T1 sequence (looked up) 2: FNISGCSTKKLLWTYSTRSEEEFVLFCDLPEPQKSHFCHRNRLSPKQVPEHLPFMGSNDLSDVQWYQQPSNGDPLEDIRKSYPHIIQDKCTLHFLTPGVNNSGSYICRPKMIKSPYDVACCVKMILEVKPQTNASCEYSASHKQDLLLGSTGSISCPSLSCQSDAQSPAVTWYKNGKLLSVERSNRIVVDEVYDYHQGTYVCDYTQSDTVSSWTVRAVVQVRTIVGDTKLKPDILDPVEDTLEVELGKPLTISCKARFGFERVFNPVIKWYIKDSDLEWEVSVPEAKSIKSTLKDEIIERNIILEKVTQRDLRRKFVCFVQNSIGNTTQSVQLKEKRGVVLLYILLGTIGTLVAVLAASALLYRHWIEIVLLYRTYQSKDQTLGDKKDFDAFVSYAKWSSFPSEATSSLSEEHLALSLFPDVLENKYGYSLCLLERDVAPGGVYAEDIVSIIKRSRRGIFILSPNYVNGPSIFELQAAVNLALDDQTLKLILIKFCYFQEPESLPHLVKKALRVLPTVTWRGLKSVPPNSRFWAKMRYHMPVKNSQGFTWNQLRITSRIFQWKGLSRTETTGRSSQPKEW
Nature of the assay: cell-based or functional assay.

The target in assay [2] is T2, IL-18 binding protein (IL-18BP) (UniProt O95998 31-194).
T2 sequence (looked up): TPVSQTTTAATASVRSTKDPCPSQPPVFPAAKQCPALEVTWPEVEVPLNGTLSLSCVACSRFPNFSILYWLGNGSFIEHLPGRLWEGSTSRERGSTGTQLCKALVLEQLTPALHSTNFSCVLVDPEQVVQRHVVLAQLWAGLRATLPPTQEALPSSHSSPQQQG
As to the kind of experiment: cell-based or functional assay.

B1: IL-18 variant G3S, E6Q, K53N, D54T, S55N, T63A, I80T, N91S (ligand)
chain: YFSKLQSKLSVIRNLNDQVLFIDQGNRPLFEDMTDSDMRDNAPRTIFIISMYNTNQPRGMAVAISVKSEKISTLSSENKTISFKEMNPPDSIKDTKSDIIFFQRSVPGHDNKMQFESSSYEGYFLASEKERDLFKLILKKEDELGDRSIMFTVQNED
Turning to B1, in assay [1], the “Activity, No BP, DF-100000” value amounted to 0.24; the “Activity, No BP, DF-500000” value is 0.11; the “Activity, No BP, DF-2500000” value came out at 0.08. In assay [2], the “Activity, +100 nM BP, DF-1000002” value worked out at 0.23; the “Activity, +100 nM BP, DF-5000003” value is 0.11; the “Activity, +100 nM BP, DF-25000004” value worked out at 0.11; the “Ratio (-BP/+BP), DF-1000005” value amounted to 1.05. In assay [2], the “Ratio (-BP/+BP), DF-5000006” value came to 1.03 and the “Ratio (-BP/+BP), DF-25000007” value worked out at 0.71.

B2: IL-18 variant G3Q, E6D, K53S, D54I, S55E, T63S, N91S, R104Q (ligand)
chain: YFQKLDSKLSVIRNLNDQVLFIDQGNRPLFEDMTDSDMRDNAPRTIFIISMYSIEQPRGMAVSISVKSEKISTLSSENKIISFKEMNPPDSIKDTKSDIIFFQQSVPGHDNKMQFESSSYEGYFLASEKERDLFKLILKKEDELGDRSIMFTVQNED
For the molecule B2, in assay [1], the “Activity, No BP, DF-100000” value came to 0.09; the “Activity, No BP, DF-500000” value is 0.07; the “Activity, No BP, DF-2500000” value was found to be 0.07. Further, in assay [2], the “Activity, +100 nM BP, DF-1000002” value was 0.12; the “Activity, +100 nM BP, DF-5000003” value stood at 0.09; the “Activity, +100 nM BP, DF-25000004” value stood at 0.11; the “Ratio (-BP/+BP), DF-1000005” value was found to be 0.73. Also, in assay [2], the “Ratio (-BP/+BP), DF-5000006” value is 0.8 and the “Ratio (-BP/+BP), DF-25000007” value was determined as 0.68.

B3: IL-18 variant G3P, E6G, D54P, S55W, N91E, R104K (ligand)
chain: YFPKLGSKLSVIRNLNDQVLFIDQGNRPLFEDMTDSDMRDNAPRTIFIISMYKPWQPRGMAVTISVKSEKISTLSSENKIISFKEMNPPDEIKDTKSDIIFFQKSVPGHDNKMQFESSSYEGYFLASEKERDLFKLILKKEDELGDRSIMFTVQNED
In the case of B3, in assay [1], the “Activity, No BP, DF-100000” value was 0.09; the “Activity, No BP, DF-500000” value stood at 0.08; the “Activity, No BP, DF-2500000” value was found to be 0.07. Besides, in assay [2], the “Activity, +100 nM BP, DF-1000002” value was 0.09; the “Activity, +100 nM BP, DF-5000003” value was found to be 0.1; the “Activity, +100 nM BP, DF-25000004” value worked out at 0.07; the “Ratio (-BP/+BP), DF-1000005” value was found to be 0.98. In assay [2], the “Ratio (-BP/+BP), DF-5000006” value stood at 0.84 and the “Ratio (-BP/+BP), DF-25000007” value was found to be 0.92.

B4: IL-18 variant K53T, D54H, S55V, T63A, N91K (ligand)
chain: YFGKLESKLSVIRNLNDQVLFIDQGNRPLFEDMTDSDMRDNAPRTIFIISMYTHVQPRGMAVAISVKSEKISTLSSENKIISFKEMNPPDKIKDTKSDIIFFQRSVPGHDNKMQFESSSYEGYFLASEKERDLFKLILKKEDELGDRSIMFTVQNED
Take B4: in assay [1], the “Activity, No BP, DF-100000” value was 0.28; the “Activity, No BP, DF-500000” value was 0.12; the “Activity, No BP, DF-2500000” value came out at 0.12. Also, in assay [2], the “Activity, +100 nM BP, DF-1000002” value turned out to be 0.23; the “Activity, +100 nM BP, DF-5000003” value turned out to be 0.1; the “Activity, +100 nM BP, DF-25000004” value came to 0.07; the “Ratio (-BP/+BP), DF-1000005” value was found to be 1.18. Further, in assay [2], the “Ratio (-BP/+BP), DF-5000006” value came out at 1.24 and the “Ratio (-BP/+BP), DF-25000007” value came to 1.58.

B5: IL-18 variant G3P, E6K, K53T, D54Y, S55V, T63I, N91I (ligand)
chain: YFPKLKSKLSVIRNLNDQVLFIDQGNRPLFEDMTDSDMRDNAPRTIFIISMYTYVQPRGMAVIISVKSEKISTLSSENKIISFKEMNPPDIIKDTKSDIIFFQRSVPGHDNKMQFESSSYEGYFLASEKERDLFKLILKKEDELGDRSIMFTVQNED
Consider B5, for which, in assay [1], the “Activity, No BP, DF-100000” value is 0.26; the “Activity, No BP, DF-500000” value came out at 0.11; the “Activity, No BP, DF-2500000” value turned out to be 0.07. In addition, in assay [2], the “Activity, +100 nM BP, DF-1000002” value came to 0.32; the “Activity, +100 nM BP, DF-5000003” value is 0.11; the “Activity, +100 nM BP, DF-25000004” value was determined as 0.08; the “Ratio (-BP/+BP), DF-1000005” value amounted to 0.81. Moreover, in assay [2], the “Ratio (-BP/+BP), DF-5000006” value is 1.01 and the “Ratio (-BP/+BP), DF-25000007” value was 0.93.

B6: IL-18 variant G3P, E6K, K53N, D54S, S55P, T63S, N91S, R104Q (ligand)
chain: YFPKLKSKLSVIRNLNDQVLFIDQGNRPLFEDMTDSDMRDNAPRTIFIISMYNSPQPRGMAVSISVKSEKISTLSSENKIISFKEMNPPDSIKDTKSDIIFFQQSVPGHDNKMQFESSSYEGYFLASEKERDLFKLILKKEDELGDRSIMFTVQNED
Regarding B6, in assay [1], the “Activity, No BP, DF-100000” value was 0.07; the “Activity, No BP, DF-500000” value was 0.08; the “Activity, No BP, DF-2500000” value came out at 0.07. Further, in assay [2], the “Activity, +100 nM BP, DF-1000002” value turned out to be 0.07; the “Activity, +100 nM BP, DF-5000003” value is 0.07; the “Activity, +100 nM BP, DF-25000004” value stood at 0.07; the “Ratio (-BP/+BP), DF-1000005” value is 0.92. In assay [2], the “Ratio (-BP/+BP), DF-5000006” value was found to be 1.03 and the “Ratio (-BP/+BP), DF-25000007” value was determined as 0.95.

B7: IL-18 variant G3H, E6Q, K53N, D54S, S55P, T63A, N91I, R104S (ligand)
chain: YFHKLQSKLSVIRNLNDQVLFIDQGNRPLFEDMTDSDMRDNAPRTIFIISMYNSPQPRGMAVAISVKSEKISTLSSENKIISFKEMNPPDIIKDTKSDIIFFQSSVPGHDNKMQFESSSYEGYFLASEKERDLFKLILKKEDELGDRSIMFTVQNED
On to B7, for which, in assay [1], the “Activity, No BP, DF-100000” value came out at 0.18; the “Activity, No BP, DF-500000” value came out at 0.09; the “Activity, No BP, DF-2500000” value is 0.07. Also, in assay [2], the “Activity, +100 nM BP, DF-1000002” value came to 0.21; the “Activity, +100 nM BP, DF-5000003” value amounted to 0.12; the “Activity, +100 nM BP, DF-25000004” value was determined as 0.08; the “Ratio (-BP/+BP), DF-1000005” value was 0.86. In assay [2], the “Ratio (-BP/+BP), DF-5000006” value is 0.78 and the “Ratio (-BP/+BP), DF-25000007” value was determined as 0.91.

B8: IL-18 variant E6N, D54N, S55N, N91H, R104P (ligand)
chain: YFGKLNSKLSVIRNLNDQVLFIDQGNRPLFEDMTDSDMRDNAPRTIFIISMYKNNQPRGMAVTISVKSEKISTLSSENKIISFKEMNPPDHIKDTKSDIIFFQPSVPGHDNKMQFESSSYEGYFLASEKERDLFKLILKKEDELGDRSIMFTVQNED
In the case of B8, in assay [1], the “Activity, No BP, DF-100000” value was determined as 0.08; the “Activity, No BP, DF-500000” value worked out at 0.07; the “Activity, No BP, DF-2500000” value was 0.07. In assay [2], the “Activity, +100 nM BP, DF-1000002” value worked out at 0.08; the “Activity, +100 nM BP, DF-5000003” value stood at 0.08; the “Activity, +100 nM BP, DF-25000004” value amounted to 0.09; the “Ratio (-BP/+BP), DF-1000005” value stood at 0.99. Besides, in assay [2], the “Ratio (-BP/+BP), DF-5000006” value was 0.93 and the “Ratio (-BP/+BP), DF-25000007” value amounted to 0.78.

B9: IL-18 variant G3L, E6N, I22M, T63V, N91T, R104P (ligand)
chain: YFLKLNSKLSVIRNLNDQVLFMDQGNRPLFEDMTDSDMRDNAPRTIFIISMYKDSQPRGMAVVISVKSEKISTLSSENKIISFKEMNPPDTIKDTKSDIIFFQPSVPGHDNKMQFESSSYEGYFLASEKERDLFKLILKKEDELGDRSIMFTVQNED
B9: in assay [1], the “Activity, No BP, DF-100000” value came out at 0.08; the “Activity, No BP, DF-500000” value is 0.07; the “Activity, No BP, DF-2500000” value amounted to 0.07. Moreover, in assay [2], the “Activity, +100 nM BP, DF-1000002” value is 0.09; the “Activity, +100 nM BP, DF-5000003” value is 0.09; the “Activity, +100 nM BP, DF-25000004” value amounted to 0.07; the “Ratio (-BP/+BP), DF-1000005” value amounted to 0.8. In assay [2], the “Ratio (-BP/+BP), DF-5000006” value turned out to be 0.82 and the “Ratio (-BP/+BP), DF-25000007” value came to 0.97.
